Assay: soluble on expression in E. coli; label from the status in PepcDB or PDB records

Question: For “RRKQQAPRRAAAYVSEELKAAALVDEGLDPEEHTADGEPSAKYMCPEKELARACPSYQNSPAAEFSCHEMDSESHISETSDRMADFESGSIKNEEETKEVTVPLEDTTVSDSLEQMKAVYNNFLSNSYWSNLNLNLHQPSSEKNNGSSSSSSSSSSSCGSGSFDWHQSAMAKTLQQVSQSRMLPEPSLFSTVQLYRQSSKLYGSIFTGASKFRCKDCSAAYDTLVELTVHMNETGHYRDDNHETDNNNPKRWSKPRKRSLLEMEGKEDAQKVLKCMYCGHSFESLQDLSVHMIKTKHYQKVPLKEPVTPVAAKIIPATRKKASLELELPSSPDSTGGTPKATISDTNDALQKNSNPYITPNNRYGHQNGASYAWHFEARKSQILKCMECGSSHDTLQELTAHMMVTGHFIKVTNSAMKKGKPIVETPVTPTITTLLDEKVQSVPLAATTFTSPSNTPASISPKLNVEVKKEVDKEKAVTDEKPKQKDKPGEEEEKCDISSKYHYLTENDLEESPKGGLDILKSLENTVTSAINKAQNGTPSWGGYPSIHAAYQLPNMMKLSLGSSGKSTPLKPMFGNSEIVSPTKNQTLVSPPSSQTSPMPKTNFHAMEELVKKVTEKVAKVEEKMKEPDGKLSPPKRATPSPCSSEVGEPIKMEASSDGGFRSQENSPSPPRDGCKDGSPLAEPVENGKELVKPLASSLSGSTAIITDHPPEQPFVNPLSALQSVMNIHLGKAAKPSLPALDPMSMLFKMSNSLAEKAAVATPPPLQSKKADHLDRYFYHVNNDQPIDLTKGKSDKGCSLGSVLLSPTSTAPATSSSTVTTAKTSAVVSFMSNSPLRENALSDISDMLKNLTESHTSKSSTPSSISEKSDIDGATLEEAEESTPAQKRKGRQSNWNPQHLLILQAQFAASLRQTSEGKYIMSDLSPQERMHISRFTGLSMTTISHWLANVKYQLRRTGGTKFLKNLDTGHPVFFCNDCASQIRTPSTYISHLESHLGFRLRDLSKLSTEQINSQIAQTKSPSEKMVTSSPEEDLGTSYQCKLCNRTFASKHAVKLHLSKTHGKSPEDHLLYVSELEKQ”, which “soluble on expression in E. coli” value is on record?
Answer: soluble

Question: With “MCSYARATDANGESFIYCRTWQGQFFRFKLEDRVYDYVTTFAKSDACLATDPDDPTKIYCALNEYNKITCIDLTKNPEDSGFETDVCGIQGPGAYQDGHVSVARLNNPQQILSMHDPETGEKVIYICDANNNCVRMYNMETKLMSTVAGIGGKSGYAAGNPTVSRMNRPYGICITPENDIYVADAGNKVIMKLAFMLEHHHHHH” as the sequence, how does the “soluble on expression in E. coli” value read?
Answer: not soluble

Question: With “GPGSMLRVSLACRVTAARSAAPHTTSSSSSLVESVTSVFRSSRYLRHAPPRLYVTCSHDQGIPLHGCGRHMTTVLDVSREASPNAPPHTQSIYLLTSTSISDVEFKDSAAQSQVLVGLPQVQSIDAIHRFCDTYAATLSRVHHILLPGGVSPLQSSLIKQLLEHIPQARLVCNGFGHALLTNATFHDGVQRAVLENEPDAPPELLRFAALPADRVSSMADGDTVAVDVAKSEAESSAPVAARALRVVAVKSKGQQQRRREHSQTHHPAHFTNEALFYYDDVFNALFVGHTLHRLPWLPTVLTEASRELFLPMPPPLATQRPLSRPSPLLDTWRVLESCEDVVEALRRTPELERVLAGSYGELCGNVEDCIAGLESSSDALERLRSRLARRLTTDTSRDVHRWSTALLKRIVHEVVCTQKASEPTSSEVQEAFLCWARTDGEWGRLSTCLAHAAMVLPPSTETGEADGASSSAADSFAAHDSVPAAGATAAGESAAPEALQGTHGVELLVAVFNRKGLQGLIRTVQRETIDVQVFLAMSEEDLKKVFKATFGITKRLMLLQDELRKNL” as the sequence, how does the “soluble on expression in E. coli” value read?
Answer: not soluble

Question: For “EVQLQQSGAELVRPGALVKLSCKASGFNIKDYYMHWVKQRPEQGLELIGWIDPENGNTIYDPKFQDKASITADTSSNTAYLQLSSLTSEDTAVYYCARDTAAYFDYWGQGTTLTVSSAKTTPPSVYPLAPGSAAQTNSMVTLGCLVKGYFPEPVTVTWNSGSLSSGVHTFPAVLQSDLYTLSSSVTVPSSTWPSETVTCNVAHPASSTKVDKKKIP”, which “soluble on expression in E. coli” value is on record?
Answer: soluble

Question: For “MSLSAADMTQTIKTLALNVRLSCELLGVPESSYYERINRRPSETQLRRQHLTLKIVQLFKANRGIYGAPKIHHLLLDKEEKVGVKLVQKIMQQLQLKSVVLKKFKPGYSASDGINRKNLVQNEPTERNKVWSTDITYIPTQQGWAYLSTIMDRYTKKVIAWDLGKRMTVELVQRTLNKAIKSQDYPEAVILHSDQGSQYTSLEYEELLKYYGMTHSFSRRGYPYHNASLESWHGYLKREWVYQFKYKNFEEAYQSIFWYIEAFYNSKRIHQSLGYLTPNQFEKVSAEGHHHHHH”, which “soluble on expression in E. coli” value is on record?
Answer: not soluble

Question: With “MSLKSPPKKDEENVKINNMFKCGFYSFKGNRTYNEDRVIIIEDMNNFLKENIINNIKDMETPSYIYCAIYDGHNGDNAVNIVQKLLHIHMYYYFINGNGLENSLKYSFQEIDNYLCKNIINIKEENHSNYSSGTTACVSVIFKNMLYVANIGDSRCIISKNGRAIVLTVDHRASINKKEQDRILKSGGILDDEGYLGGCLGVCRGFGSFHKKTKEKLKGLICEPDLFHIKLTDDDEFLIICCDGIFDVITSQEAVNTVKNSLIQSRDAKTAAEALCQLAYKKKSLDNLSVLVVIFQNPDKEGHHHHHH” as the sequence, how does the “soluble on expression in E. coli” value read?
Answer: soluble

Question: With “VSRSRKEEERQEQSARLLSKLRRFDDLDRNWPIKILIQGLRFPIRSEQRLTEYFGCSNSYEISLRDIMNFLITDYEKIPLDLYEVCPAYKQKQIGRKTYSAIVNHLSEQGLGSTFRCEWNMRLKKLIRFMEKGWEYIPDSFRQYEYRA” as the sequence, how does the “soluble on expression in E. coli” value read?
Answer: soluble

Question: Which “soluble on expression in E. coli” value does the source give for “MVNLQEYQSKKLMSDNGVKVQRFFVADTANEALEAAKRLNAKEIVLKAQILAGGRGKGVFSSGLKGGVHLTKDPEVVGQLAKQMIGYNLATKQTPKEGVKVNKVMVAEALDISRETYLAILMDRSCNGPVLVGSPQGGVDIEEVAASNPELIFKEQIDIIEGIKDSQAQRMAENLGFLGPLQNQAADQIKKLYNLFLKIDATQVEVNPFGETPEGQVVCFDAKINFDDNAEFRQKDIFAMDDKSENEPIENEAAKYDLKYIGLDGNIACFVNGAGLAMATCDIIFLNGGKPANFLDLGGGVKESQVYQAFKLLTADPKVEAILVNIFGGIVNCAIIANGITKACRELELKVPLVVRLEGTNVHEAQNILTNSGLPITSAVDLEDAAKKAVASVTKK” here?
Answer: soluble

Question: With “MHIKIDDLTGRQVVSLVNEHLHSMTLMSPPESIHALGLEKLRGPEITFWSAWEGDELAGCGALKELDTRHGEIKSMRTSASHLRKGVAKQVLQHIIEEAEKRGYERLSLETGSMASFEPARKLYESFGFQYCEPFADYGEDPNSVFMTKKLLEHHHHHH” as the sequence, how does the “soluble on expression in E. coli” value read?
Answer: soluble

Question: With “VLQTRNYTCGPAALATVLQRLGVNTTEDELAGLAGTTEEGTTMQGLLEASRAKGMNATGMKLNISELKENMIAYTINDGTGHYTVINEITNDTIKLADPSLGNIEMNIEEFAEIYSGYTLVI” as the sequence, how does the “soluble on expression in E. coli” value read?
Answer: soluble

Question: For “MGSDKIHHHHHHMQPTYNIDNPNLSYEAKRDLWRIGFGLQKVDNLVPSAYMESLAEKQSRGELTYEQVYEDATAYHHTIDASTEEADLVSLRIVELLSRRGFSFSPAILLAIHKELFQDIFEPSIPVGQFRQTNITKNEPVLNGESVVYSDYSMIQMTLDYDFNQEKQVAYATLTQADMVKKIQHFISGIWQIHPFREGNTRTVTVFLIQYLREFGFDIDNTPFQQHSKYFRDALVLDNAKILQRRPEFLTAFFENLLLGGQNDLSSEKMYLDLDLDLS”, which “soluble on expression in E. coli” value is on record?
Answer: not soluble

Question: For “SNIMDFNVKKLAADAGTFLSRAVQFTEEKLGQAEKTELDAHLENLLSKAECTKIWTEKIMKQTEVLLQPNPNARIEEFVYEKLDRKAPSRINNPELLGQYMIDAGTEFGPGTAYGNALIKCGETQKRIGTADRELIQTSALNFLTPLRNFIEGDYKTIAKERKLLQNKRLDLDAAKTRLKKAKAAETRNSSEQELRITQSEFDRQAEITRLLLEGISSTHAHHLRCLNDFVEAQMTYYAQCYQYMLDLQKQLGSFPSNYLSNNNQTSVTPVPSVLPNAIGSSAMASTSGLVITSPSNLSDLKECSGSRKARVLYDYDAANSTELSLLADEVITVFSVVGMDSDWLMGERGNQKGKVPITYLELLN”, which “soluble on expression in E. coli” value is on record?
Answer: not soluble

Question: With “KTISLYKDSIPKEKTEGTDAILISDNQLINQLQTAAKTSSSQNKANTAAITFKQSNKSETDQSTTSQVIGYTTTASLKADKKNIFDVKKLNNEKSERKIIVGATVETLNQANTLQANEAIIKPAPGKYQSTDSHKVMITQGPNIVGIHANEKEDKETQKFINW” as the sequence, how does the “soluble on expression in E. coli” value read?
Answer: soluble

— the DeepSol protein solubility set
